The test deals with Ralstonia solanacearum lectin (Ralstonia solanacearum). Description: crystal structure.

On to “Ralstonia solanacearum lectin (natural protein)”, for which the stoichiometry N (commonly a count of units in the complex or per binding partner) was 3.
